Experimental findings from patent US20240417437A1 (TRUTINO BIOSCIENCES, published 2024) are described below.

Broadly, the EC50 is the concentration giving half of the maximal effect. Low values mean greater potency, high ones weaker potency.

Assay [1] concerns the target fibronectin (Sigma), coated on 96-well plates. As to the kind of experiment: plate ELISA on coated fibronectin at pH 6, OD 450-650nm. The EC50 is printed in the plot area beside the top curve (Construct EE - pH 6), the only strongly rising curve. As to the method:
A similar plate-based assay was developed to interrogate binding of IL-2 fusion variants to fibronectin. 96-well plates were coated with fibronectin (4-10 μg/mL, Sigma) or control BSA for 18-22 hours at room temperature on shaker (350 rpm). After washing, wells were blocked with 2% milk powder in PBS-0.05% Tween 20 or protein-free blocking buffer (Pierce) for 90 min, then fusion proteins were titrated in blocking buffer-0.1% Tween 20, pH 7.5 and/or pH 6, and added for 1 hour at room temperature with shaking. After washing, an anti-mouse IL-2 biotin-labelled detection antibody (JES6-5H4, ThermoFisher) or anti-human IgG HRP conjugate antibody (SouthernBiotech) was added, and binding was detected using Ultra Streptavidin HRP (ThermoFisher). The plate was developed by adding the chromogenic tetramethylbenzidine substrate (Ultra TMB, ThermoFisher). The reaction was stopped by addition of 0.5 M H₂SO₄, and the absorbance was read at 450-650 nm.
Background: In an ELISA, binding on a coated surface is turned into a signal by an enzyme label.

The target of assay [2] is T1, collagen cross-linked to agarose (Sigma).
T1 construct: also called collagen-agarose; collagen-agarose beads
Nature of the assay: pulldown with collagen-agarose, immunoblot quantified with iBright imaging system; reference Construct B. The protocol:
To test binding to collagen, a pulldown assay using agarose cross-linked to collagen (Sigma) was performed. IL-2 fusion proteins were incubated with collagen-agarose or control agarose beads for 18-22 hours at 4° C. with gentle rotation in 1% BSA/PBS-0.05% Tween 20. After washing, proteins bound to the beads were eluted by resuspending beads in SDS sample buffer (Life Technologies). […] Donkey anti-goat HRP-conjugated antibody was used for detection (Jackson Immuno Research, West Grove, PA), and the blot was developed using the SuperSignal West Femto Maximum sensitivity detection reagent (ThermoFisher) following the manufacturer's recommendations. Construct GG and Construct II were specifically bound by collagen-agarose beads, while no IL-2 fusion protein bound the control agarose beads.

Sequence of fibronectin (Sigma), coated on 96-well plates (P02751 32-2477): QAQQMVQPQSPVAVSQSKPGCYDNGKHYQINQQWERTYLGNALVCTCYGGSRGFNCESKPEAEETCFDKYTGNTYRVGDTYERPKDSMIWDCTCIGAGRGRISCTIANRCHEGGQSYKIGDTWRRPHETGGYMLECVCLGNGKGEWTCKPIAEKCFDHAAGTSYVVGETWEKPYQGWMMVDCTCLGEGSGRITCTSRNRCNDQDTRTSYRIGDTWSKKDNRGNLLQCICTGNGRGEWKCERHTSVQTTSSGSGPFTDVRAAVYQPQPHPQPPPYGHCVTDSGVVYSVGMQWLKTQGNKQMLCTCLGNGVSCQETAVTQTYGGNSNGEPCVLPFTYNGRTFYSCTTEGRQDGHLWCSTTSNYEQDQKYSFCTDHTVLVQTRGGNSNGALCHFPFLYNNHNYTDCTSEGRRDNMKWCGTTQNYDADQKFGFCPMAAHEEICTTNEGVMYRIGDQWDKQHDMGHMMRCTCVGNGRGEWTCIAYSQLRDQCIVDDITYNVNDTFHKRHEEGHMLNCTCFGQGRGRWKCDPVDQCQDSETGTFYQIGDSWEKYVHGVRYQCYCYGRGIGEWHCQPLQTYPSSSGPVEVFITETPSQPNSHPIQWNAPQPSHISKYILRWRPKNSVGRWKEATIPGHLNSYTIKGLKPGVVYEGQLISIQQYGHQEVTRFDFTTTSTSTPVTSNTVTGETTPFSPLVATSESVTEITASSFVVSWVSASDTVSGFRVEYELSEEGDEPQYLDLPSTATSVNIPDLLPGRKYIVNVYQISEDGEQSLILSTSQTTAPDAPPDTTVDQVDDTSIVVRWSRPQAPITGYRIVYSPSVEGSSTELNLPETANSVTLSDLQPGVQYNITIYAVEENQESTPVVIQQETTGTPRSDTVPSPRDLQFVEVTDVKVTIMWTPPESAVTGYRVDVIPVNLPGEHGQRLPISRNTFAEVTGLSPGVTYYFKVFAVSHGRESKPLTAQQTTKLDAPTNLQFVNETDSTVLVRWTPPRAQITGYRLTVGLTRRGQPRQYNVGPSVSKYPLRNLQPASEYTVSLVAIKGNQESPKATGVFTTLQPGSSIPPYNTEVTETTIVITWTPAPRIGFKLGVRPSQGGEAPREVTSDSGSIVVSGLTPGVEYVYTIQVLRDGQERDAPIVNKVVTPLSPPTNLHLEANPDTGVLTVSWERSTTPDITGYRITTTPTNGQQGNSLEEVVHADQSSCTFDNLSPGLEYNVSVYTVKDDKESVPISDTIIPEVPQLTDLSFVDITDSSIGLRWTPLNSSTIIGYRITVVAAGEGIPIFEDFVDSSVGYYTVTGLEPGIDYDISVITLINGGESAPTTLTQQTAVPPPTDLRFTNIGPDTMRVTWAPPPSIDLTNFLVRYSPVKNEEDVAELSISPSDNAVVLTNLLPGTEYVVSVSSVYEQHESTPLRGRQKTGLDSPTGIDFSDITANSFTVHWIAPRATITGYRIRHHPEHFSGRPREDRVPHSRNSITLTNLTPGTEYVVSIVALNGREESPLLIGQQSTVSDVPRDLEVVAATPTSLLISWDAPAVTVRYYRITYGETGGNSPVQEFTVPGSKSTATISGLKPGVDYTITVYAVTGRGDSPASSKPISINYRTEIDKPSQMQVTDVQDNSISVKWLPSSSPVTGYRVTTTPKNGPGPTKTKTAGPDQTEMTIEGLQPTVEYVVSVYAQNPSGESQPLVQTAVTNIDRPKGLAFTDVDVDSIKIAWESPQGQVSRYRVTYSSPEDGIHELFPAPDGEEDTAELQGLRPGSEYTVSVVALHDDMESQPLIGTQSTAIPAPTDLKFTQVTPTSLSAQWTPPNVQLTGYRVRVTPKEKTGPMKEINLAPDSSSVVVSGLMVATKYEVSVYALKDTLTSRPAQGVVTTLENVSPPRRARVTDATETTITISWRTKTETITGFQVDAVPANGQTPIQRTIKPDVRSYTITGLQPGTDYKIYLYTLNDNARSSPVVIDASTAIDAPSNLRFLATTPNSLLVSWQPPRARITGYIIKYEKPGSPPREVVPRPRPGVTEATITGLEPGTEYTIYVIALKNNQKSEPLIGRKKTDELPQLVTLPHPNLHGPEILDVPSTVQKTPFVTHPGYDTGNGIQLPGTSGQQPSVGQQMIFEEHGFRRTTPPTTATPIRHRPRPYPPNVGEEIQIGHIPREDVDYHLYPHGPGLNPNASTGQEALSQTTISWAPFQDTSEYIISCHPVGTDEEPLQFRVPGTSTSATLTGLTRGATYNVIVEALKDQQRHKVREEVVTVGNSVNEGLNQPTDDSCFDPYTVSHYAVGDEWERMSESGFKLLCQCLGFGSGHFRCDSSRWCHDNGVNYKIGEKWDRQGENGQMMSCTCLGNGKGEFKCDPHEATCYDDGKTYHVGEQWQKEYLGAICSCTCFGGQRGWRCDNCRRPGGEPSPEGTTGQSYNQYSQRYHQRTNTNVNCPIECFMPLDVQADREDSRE

B1: Construct EE (pH fibronectin): mIL2-SGG-GGWSHW(SEQ ID NO: 653)-MMPcs1-2x(G4S)-mIL2Ra(1-215)-muIgG1Fc (Fc fusion)
chain: APTSSSTSSSTAEAQQQQQQQQQQQQHLEQLLMDLQELLSRMENYRNLKLPRMLTFKFYLPKQATELKDLQCLEDELGPLRHVLDLTQSKSFQLEDAENFISNIRVTVVKLKGSDNTFECQFDDESATVVDFLRRWIAFCQSIISTSPQSGGGGWSHWGPLGVRGGGGGSGGGGSELCLYDPPEVPNATFKALSYKNGTILNCECKRGFRRLKELVYMRCLGNSWSSNCQCTSNSHDKSRKQVTAQLEHQKEQQTTTDMQKPTQSMHQENLTGHCREPPPWKHEDSKRIYHFVEGQSVHYECIPGYKALQRGPAISICKMKCGKTGWTQPQLTCVDEREHHRFLASEESQGSRNSSPESETSCPITTTDFPQPTETTAMTETFVLTMEYKGCKPCICTVPEVSSVFIFPPKPKDVLTITLTPKVTCVVVDISKDDPEVQFSWFVDDVEVHTAQTQPREEQFNSTFRSVSELPIMHQDWLNGKEFKCRVNSAAFPAPIEKTISKTKGRPKAPQVYTIPPPKEQMAKDKVSLTCMITDFFPEDITVEWQWNGQPAENYKNTQPIMDTDGSYFVYSKLNVQKSNWEAGNTFTCSVLHEGLHNHHTEKSLSHSPGK
notes: Single-chain mouse IL-2 / IL-2Ralpha / mouse IgG1 Fc fusion
In assay [1], B1 returned an EC50 of 1820 nM.

B2: Construct II (collagen I): mIL2-LHERHLNNN(SEQ ID NO: 665)-MMPcs1-2x(G4S)-mIL2Ra(1-215)-muIgG1Fc (Fc fusion)
chain: APTSSSTSSSTAEAQQQQQQQQQQQQHLEQLLMDLQELLSRMENYRNLKLPRMLTFKFYLPKQATELKDLQCLEDELGPLRHVLDLTQSKSFQLEDAENFISNIRVTVVKLKGSDNTFECQFDDESATVVDFLRRWIAFCQSIISTSPQSLHERHLNNNGPLGVRGGGGGSGGGGSELCLYDPPEVPNATFKALSYKNGTILNCECKRGFRRLKELVYMRCLGNSWSSNCQCTSNSHDKSRKQVTAQLEHQKEQQTTTDMQKPTQSMHQENLTGHCREPPPWKHEDSKRIYHFVEGQSVHYECIPGYKALQRGPAISICKMKCGKTGWTQPQLTCVDEREHHRFLASEESQGSRNSSPESETSCPITTTDFPQPTETTAMTETFVLTMEYKGCKPCICTVPEVSSVFIFPPKPKDVLTITLTPKVTCVVVDISKDDPEVQFSWFVDDVEVHTAQTQPREEQFNSTFRSVSELPIMHQDWLNGKEFKCRVNSAAFPAPIEKTISKTKGRPKAPQVYTIPPPKEQMAKDKVSLTCMITDFFPEDITVEWQWNGQPAENYKNTQPIMDTDGSYFVYSKLNVQKSNWEAGNTFTCSVLHEGLHNHHTEKSLSHSPGK
In the case of B2, the “fold of bound fraction over Construct B” value in assay [2] amounted to 1.4 fold.
